The record followed here is IntAct's records for PubMed 29039417.

To fix the notation:
B1: Protein PTHB1 (Homo sapiens), Q3SYG4 (parent)
chain: MSLFKARDWWSTILGDKEEFDQGCLCLANVDNSGNGQDKIIVGSFMGYLRIFSPHPAKTGDGAQAEDLLLEVDLRDPVLQVEVGKFVSGTEMLHLAVLHSRKLCVYSVSGTLGNVEHGNQCQMKLMYEHNLQRTACNMTYGSFGGVKGRDLICIQSMDGMLMVFEQESYAFGRFLPGFLLPGPLAYSSRTDSFLTVSSCQQVESYKYQVLAFATDADKRQETEQQKLGSGKRLVVDWTLNIGEQALDICIVSFNQSASSVFVLGERNFFCLKDNGQIRFMKKLDWSPSCFLPYCSVSEGTINTLIGNHNNMLHIYQDVTLKWATQLPHIPVAVRVGCLHDLKGVIVTLSDDGHLQCSYLGTDPSLFQAPNVQSRELNYDELDVEMKELQKIIKDVNKSQGVWPMTEREDDLNVSVVVSPNFDSVSQATDVEVGTDLVPSVTVKVTLQNRVILQKAKLSVYVQPPLELTCDQFTFEFMTPDLTRTVSFSVYLKRSYTPSELEGNAVVSYSRPTDRNPDGIPRVIQCKFRLPLKLICLPGQPSKTASHKITIDTNKSPVSLLSLFPGFASQSDDDQVNVMGFHFLGGARITVLASKTSQRYRIQSEQFEDLWLITNELILRLQEYFEKQGVKDFACSFSGSIPLQEYFELIDHHFELRINGEKLEELLSERAVQFRAIQRRLLARFKDKTPAPLQHLDTLLDGTYKQVIALADAVEENQGNLFQSFTRLKSATHLVILLIALWQKLSADQVAILEAAFLPLQEDTQELGWEETVDAAISHLLKTCLSKSSKEQALNLNSQLNIPKDTSQLKKHITLLCDRLSKGGRLCLSTDAAAPQTMVMPGGCTTIPESDLEERSVEQDSTELFTNHRHLTAETPRPEVSPLQGVSE
partner: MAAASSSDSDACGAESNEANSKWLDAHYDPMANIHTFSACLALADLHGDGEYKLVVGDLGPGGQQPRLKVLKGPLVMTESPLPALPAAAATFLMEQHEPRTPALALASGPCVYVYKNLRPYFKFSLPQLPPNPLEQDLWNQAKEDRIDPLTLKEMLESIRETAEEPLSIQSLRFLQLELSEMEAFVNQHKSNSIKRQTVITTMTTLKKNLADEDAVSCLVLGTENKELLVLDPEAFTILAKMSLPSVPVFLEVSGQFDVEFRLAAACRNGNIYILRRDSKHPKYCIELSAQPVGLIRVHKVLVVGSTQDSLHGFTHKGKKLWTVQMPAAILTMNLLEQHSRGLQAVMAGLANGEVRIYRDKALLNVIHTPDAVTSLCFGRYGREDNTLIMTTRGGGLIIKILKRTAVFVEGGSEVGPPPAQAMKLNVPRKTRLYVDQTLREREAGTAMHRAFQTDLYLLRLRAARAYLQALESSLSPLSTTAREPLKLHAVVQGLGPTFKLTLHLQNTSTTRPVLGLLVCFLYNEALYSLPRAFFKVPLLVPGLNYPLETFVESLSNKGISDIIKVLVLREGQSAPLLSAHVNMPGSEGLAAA

The variants in this assay derive from B1. The conditions noted are these: with bbs1_human BBS1, Q8NFJ9.
As to D817A, the “effect of a mutation on the interaction” value was “with no effect”.

Turning to D817K, the “effect of a mutation on the interaction” value is listed as “with no effect”.

Turning to D817N, the “effect of a mutation on the interaction” value is recorded as “disrupting interaction strength”.

Consider D817E, for which the “effect of a mutation on the interaction” value is “with no effect”.

P802K: the “effect of a mutation on the interaction” value was “with no effect”.

In the case of P802A, the “effect of a mutation on the interaction” value is given as “with no effect”.

Regarding P802E, the “effect of a mutation on the interaction” value is on record as “with no effect”.

P802T: the “effect of a mutation on the interaction” value is given as “disrupting interaction strength”.

On to I812K, for which the “effect of a mutation on the interaction” value is “with no effect”.

In the case of I812E, the “effect of a mutation on the interaction” value is on record as “with no effect”.

Consider I812A, for which the “effect of a mutation on the interaction” value is reported as “with no effect”.

Regarding L808E, the “effect of a mutation on the interaction” value is on record as “with no effect”.

As to L808K, the “effect of a mutation on the interaction” value is “with no effect”.

As to L808A, the “effect of a mutation on the interaction” value is recorded as “with no effect”.

On to L799E, for which the “effect of a mutation on the interaction” value was “with no effect”.

Take L799A: the “effect of a mutation on the interaction” value is reported as “with no effect”.

L799K: the “effect of a mutation on the interaction” value is given as “with no effect”.

For the variant S820E, the “effect of a mutation on the interaction” value is “with no effect”.

On to S820K, for which the “effect of a mutation on the interaction” value was “with no effect”.

Take S820A: the “effect of a mutation on the interaction” value is recorded as “with no effect”.

On to K810E, for which the “effect of a mutation on the interaction” value is reported as “with no effect”.

K810A: the “effect of a mutation on the interaction” value is “with no effect”.

Regarding L795A, the “effect of a mutation on the interaction” value is given as “with no effect”.

For L795K, the “effect of a mutation on the interaction” value is “with no effect”.

As for L795E, the “effect of a mutation on the interaction” value is listed as “with no effect”.

For K803A, the “effect of a mutation on the interaction” value is “with no effect”.

As for K803E, the “effect of a mutation on the interaction” value is “with no effect”.

For K821E, the “effect of a mutation on the interaction” value is given as “with no effect”.

As for K821A, the “effect of a mutation on the interaction” value is recorded as “with no effect”.

With R818E, the “effect of a mutation on the interaction” value is reported as “with no effect”.

For the variant R818K, the “effect of a mutation on the interaction” value is “with no effect”.

Turning to R818A, the “effect of a mutation on the interaction” value was “with no effect”.

On to L815K, for which the “effect of a mutation on the interaction” value was “with no effect”.

With L815A, the “effect of a mutation on the interaction” value was “with no effect”.

Regarding L815E, the “effect of a mutation on the interaction” value was “with no effect”.

Regarding R824A, the “effect of a mutation on the interaction” value is “with no effect”.

For the variant R824K, the “effect of a mutation on the interaction” value is recorded as “with no effect”.

Regarding R824E, the “effect of a mutation on the interaction” value is on record as “with no effect”.

Regarding T813A, the “effect of a mutation on the interaction” value is given as “with no effect”.

For T813E, the “effect of a mutation on the interaction” value is given as “with no effect”.

As to T813K, the “effect of a mutation on the interaction” value is “with no effect”.

As to Q798E, the “effect of a mutation on the interaction” value is listed as “with no effect”.

Regarding Q798K, the “effect of a mutation on the interaction” value is “with no effect”.

In the case of Q798A, the “effect of a mutation on the interaction” value was “with no effect”.

On to L825E, for which the “effect of a mutation on the interaction” value is on record as “with no effect”.

On to L825A, for which the “effect of a mutation on the interaction” value is “with no effect”.

For D804E, the “effect of a mutation on the interaction” value was “with no effect”.

As for D804K, the “effect of a mutation on the interaction” value was “with no effect”.

D804F: the “effect of a mutation on the interaction” value is given as “disrupting interaction strength”.

As for D804A, the “effect of a mutation on the interaction” value is “with no effect”.

Turning to K809A, the “effect of a mutation on the interaction” value is “with no effect”.

With K809E, the “effect of a mutation on the interaction” value is “disrupting interaction strength”.

For T805A, the “effect of a mutation on the interaction” value was “with no effect”.

Take T805K: the “effect of a mutation on the interaction” value is recorded as “with no effect”.

Regarding T805E, the “effect of a mutation on the interaction” value is given as “with no effect”.

For the variant L819A, the “effect of a mutation on the interaction” value is listed as “with no effect”.

In the case of L819E, the “effect of a mutation on the interaction” value is “with no effect”.

Turning to L819K, the “effect of a mutation on the interaction” value is given as “disrupting interaction strength”.

As to Q807A, the “effect of a mutation on the interaction” value is on record as “with no effect”.

Q807K: the “effect of a mutation on the interaction” value is “with no effect”.

On to Q807E, for which the “effect of a mutation on the interaction” value is recorded as “with no effect”.

L814A: the “effect of a mutation on the interaction” value was “with no effect”.

For L814K, the “effect of a mutation on the interaction” value is recorded as “with no effect”.

In the case of L814E, the “effect of a mutation on the interaction” value is reported as “with no effect”.

For the variant S797K, the “effect of a mutation on the interaction” value is recorded as “with no effect”.

Consider S797A, for which the “effect of a mutation on the interaction” value is “with no effect”.

As to S797E, the “effect of a mutation on the interaction” value is “with no effect”.

G822K: the “effect of a mutation on the interaction” value is “with no effect”.

In the case of G822E, the “effect of a mutation on the interaction” value was “with no effect”.

Take G822A: the “effect of a mutation on the interaction” value was “with no effect”.

Consider S806A, for which the “effect of a mutation on the interaction” value is “with no effect”.

As for S806K, the “effect of a mutation on the interaction” value is recorded as “with no effect”.

Regarding S806E, the “effect of a mutation on the interaction” value is reported as “with no effect”.

As to N800E, the “effect of a mutation on the interaction” value is “with no effect”.

For the variant N800A, the “effect of a mutation on the interaction” value is listed as “with no effect”.

Turning to N800K, the “effect of a mutation on the interaction” value is on record as “with no effect”.

With N796A, the “effect of a mutation on the interaction” value is “with no effect”.

For the variant N796K, the “effect of a mutation on the interaction” value is “with no effect”.

In the case of N796E, the “effect of a mutation on the interaction” value is “with no effect”.

As for I801A, the “effect of a mutation on the interaction” value was “with no effect”.

As for I801E, the “effect of a mutation on the interaction” value was “with no effect”.

Regarding I801K, the “effect of a mutation on the interaction” value was “with no effect”.

For the variant H811E, the “effect of a mutation on the interaction” value is listed as “with no effect”.

With H811K, the “effect of a mutation on the interaction” value is on record as “with no effect”.

On to H811A, for which the “effect of a mutation on the interaction” value is given as “with no effect”.

Regarding N794K, the “effect of a mutation on the interaction” value was “with no effect”.

With G823E, the “effect of a mutation on the interaction” value is reported as “with no effect”.

In the case of G823K, the “effect of a mutation on the interaction” value is reported as “with no effect”.

Regarding G823A, the “effect of a mutation on the interaction” value is recorded as “with no effect”.

On to C816A, for which the “effect of a mutation on the interaction” value is “with no effect”.

As for C816K, the “effect of a mutation on the interaction” value is “with no effect”.

Consider C816E, for which the “effect of a mutation on the interaction” value was “with no effect”.
